Reference: article PMC7730851, “Expression of Somatostatin Receptor Subtypes (SSTR-1–SSTR-5) in Pediatric Hematological and Oncological Disorders” (Molecules, 2020)

System: somatostatin receptors (SSTR)
Assay: Displacement of [125I]RC-160 binding from membranes of human pediatric tumors by unlabeled peptides
Description: Receptor binding affinities and concentrations of SSTRs in tumor membranes were also studied. […] Biochemical specifications and parameters crucial to characterize specific binding sites were also defined. […] Various peptides structurally related or unrelated to SST were used in these studies.
Displacement of [^125I] RC-160 as a radioligand by the unlabeled SST analogs as competitor was determined.
The radioiodinated derivatives of the RC-160 SST analogue were prepared by the chloramine-T method and purified by reverse phase high-performance liquid chromatography (RP-HPLC) as described previously. Somatostatin receptor-binding assays were performed as described previously with some minor modifications, using in vitro ligand competition assays based on the binding of [^125I] RC-160 as a radioligand to membrane fractions of the pediatric samples. This radioiodinated ligand has been well characterized and reported previously and has high affinity for SSTR-2 and SSTR-5 [4]. […] After incubation for 2 h, the binding reactions were stopped, and the bound ligand was separated and counted in a gamma counter. […] The final binding affinities were expressed as IC50 values. Protein concentration was determined by the method of Bradford using a Bio-Rad protein assay kit (Bio-Rad Laboratories, Inc.).

B1: epidermal growth factor (EGF): unrelated peptide used as specificity control (protein, UniProt P01133 23-1207, looked up)
Pro-epidermal growth factor: PQHWSCPEGTLAGNGNSTCVGPAPFLIFSHGNSIFRIDTEGTNYEQLVVDAGVSVIMDFHYNEKRIYWVDLERQLLQRVFLNGSRQERVCNIEKNVSGMAINWINEEVIWSNQQEGIITVTDMKGNNSHILLSALKYPANVAVDPVERFIFWSSEVAGSLYRADLDGVGVKALLETSEKITAVSLDVLDKRLFWIQYNREGSNSLICSCDYDGGSVHISKHPTQHNLFAMSLFGDRIFYSTWKMKTIWIANKHTGKDMVRINLHSSFVPLGELKVVHPLAQPKAEDDTWEPEQKLCKLRKGNCSSTVCGQDLQSHLCMCAEGYALSRDRKYCEDVNECAFWNHGCTLGCKNTPGSYYCTCPVGFVLLPDGKRCHQLVSCPRNVSECSHDCVLTSEGPLCFCPEGSVLERDGKTCSGCSSPDNGGCSQLCVPLSPVSWECDCFPGYDLQLDEKSCAASGPQPFLLFANSQDIRHMHFDGTDYGTLLSQQMGMVYALDHDPVENKIYFAHTALKWIERANMDGSQRERLIEEGVDVPEGLAVDWIGRRFYWTDRGKSLIGRSDLNGKRSKIITKENISQPRGIAVHPMAKRLFWTDTGINPRIESSSLQGLGRLVIASSDLIWPSGITIDFLTDKLYWCDAKQSVIEMANLDGSKRRRLTQNDVGHPFAVAVFEDYVWFSDWAMPSVMRVNKRTGKDRVRLQGSMLKPSSLVVVHPLAKPGADPCLYQNGGCEHICKKRLGTAWCSCREGFMKASDGKTCLALDGHQLLAGGEVDLKNQVTPLDILSKTRVSEDNITESQHMLVAEIMVSDQDDCAPVGCSMYARCISEGEDATCQCLKGFAGDGKLCSDIDECEMGVPVCPPASSKCINTEGGYVCRCSEGYQGDGIHCLDIDECQLGEHSCGENASCTNTEGGYTCMCAGRLSEPGLICPDSTPPPHLREDDHHYSVRNSDSECPLSHDGYCLHDGVCMYIEALDKYACNCVVGYIGERCQYRDLKWWELRHAGHGQQQKVIVVAVCVVVLVMLLLLSLWGAHYYRTQKLLSKNPKNPYEESSRDVRSRRPADTEDGMSSCPQPWFVVIKEHQDLKNGGQPVAGEDGQAADGSMQPTSWRQEPQLCGMGTEQGCWIPVSSDKGSCPQVMERSFHMPSYGTQTLEGGVEKPHSLLSANPLWQQRALDPPHQMELTQ
modifications: Pro-epidermal growth factor
notes: unrelated peptide used as specificity control
Membrane fractions of human rhabdomyosarcoma specimen, Figure 3
  displacement of [125I]RC-160 binding: did not displace
Pediatric tumor membranes, competitor 10^-12-10^-6 M, concentrations as high as 1 µM
  inhibition/displacement of the binding of radioiodinated RC-160: none
